# In patent US20200024322A1 (Eli Lilly, published 2020):
# Substitutions are numbered along the chain they refer to. Numbered stars: 1 amine (or outer) side, 2 acyl side, 3 side chain; on linkers, the order of the positions; unused ones are H or OH. Square brackets hold non-standard residues; d marks the D form. Side chains are listed from the residue outwards. Ends that are not written are not given here. * marks the point of attachment. C20 diacid = O=C(O)CCCCCCCCCCCCCCCCCCC(=O)*; C18 diacid = O=C(O)CCCCCCCCCCCCCCCCC(=O)*; γGlu = O=C(O)[C@H](CCC(=O)[*:2])N[*:1]; AEEA = NCCOCCOCC(=O)O; Aib = CC(C)(N)C(=O)O
# T1: human GIP receptor (human, UniProt P48546 22-466)
# T1 construct: whole, on cells; also called hGIPR; hGIP-R
# T1 sequence (looked up): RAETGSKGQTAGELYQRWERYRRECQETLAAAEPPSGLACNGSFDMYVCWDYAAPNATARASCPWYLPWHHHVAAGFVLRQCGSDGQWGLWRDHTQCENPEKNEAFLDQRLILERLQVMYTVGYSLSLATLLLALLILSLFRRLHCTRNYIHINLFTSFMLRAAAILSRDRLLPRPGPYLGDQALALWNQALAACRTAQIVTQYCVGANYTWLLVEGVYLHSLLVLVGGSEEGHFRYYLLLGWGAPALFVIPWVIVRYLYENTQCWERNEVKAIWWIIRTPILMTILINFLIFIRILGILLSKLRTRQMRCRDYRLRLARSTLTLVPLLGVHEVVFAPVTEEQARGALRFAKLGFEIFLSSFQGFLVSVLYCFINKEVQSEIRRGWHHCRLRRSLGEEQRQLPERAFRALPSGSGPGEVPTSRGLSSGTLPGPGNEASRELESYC
# B1: Example 330 (peptide)
# peptide: Y[Aib]EGTFTSDYSILLDEK([AEEA-AEEA-γGlu-C20 diacid])AQ[Aib]AFIEYLIAGGPSSGAPPPS-NH2
# modifications: N-terminus assumed
# SMILES: CC[C@H](C)[C@H](NC(=O)[C@H](CC(C)C)NC(=O)[C@H](Cc1ccc(O)cc1)NC(=O)[C@H](CCC(=O)O)NC(=O)[C@@H](NC(=O)[C@H](Cc1ccccc1)NC(=O)[C@H](C)NC(=O)C(C)(C)NC(=O)[C@H](CCC(N)=O)NC(=O)[C@H](C)NC(=O)[C@H](CCCCNC(=O)COCCOCCNC(=O)COCCOCCNC(=O)CC[C@H](NC(=O)CCCCCCCCCCCCCCCCCCC(=O)O)C(=O)O)NC(=O)[C@H](CCC(=O)O)NC(=O)[C@H](CC(=O)O)NC(=O)[C@H](CC(C)C)NC(=O)[C@H](CC(C)C)NC(=O)[C@@H](NC(=O)[C@H](CO)NC(=O)[C@H](Cc1ccc(O)cc1)NC(=O)[C@H](CC(=O)O)NC(=O)[C@H](CO)NC(=O)[C@@H](NC(=O)[C@H](Cc1ccccc1)NC(=O)[C@@H](NC(=O)CNC(=O)[C@H](CCC(=O)O)NC(=O)C(C)(C)NC(=O)[C@@H](N)Cc1ccc(O)cc1)[C@@H](C)O)[C@@H](C)O)[C@@H](C)CC)[C@@H](C)CC)C(=O)N[C@@H](C)C(=O)NCC(=O)NCC(=O)N1CCC[C@H]1C(=O)N[C@@H](CO)C(=O)N[C@@H](CO)C(=O)NCC(=O)N[C@@H](C)C(=O)N1CCC[C@H]1C(=O)N1CCC[C@H]1C(=O)N1CCC[C@H]1C(=O)N[C@@H](CO)C(N)=O
# B2: Example 232 (peptide)
# peptide: YXEGTXTSDXSIXLDXKAQXEFIXYLIEGGPSSGAPPPS
# modifications: Aib2; αMeF(2F)6; 4Pal10; αMeL13; Orn16; K17((2-[2-(2-Amino-ethoxy)-ethoxy]-acetyl)2-(γ-Glu)-CO-(CH2)16-CO2H); Aib20; D-Glu24; C-terminal NH2
# B3: Example 234 (peptide)
# peptide: B2 peptide with X13L
# modifications: Aib2; αMeF(2F)6; 4Pal10; Dab16; K17((2-[2-(2-Amino-ethoxy)-ethoxy]-acetyl)2-(γ-Glu)-CO-(CH2)16-CO2H); Aib20; D-Glu24; C-terminal NH2
# B4: Example 248 (peptide)
# peptide: B2 peptide with X10Y, X13L
# modifications: Aib2; αMeF(2F)6; Orn16; K17((2-[2-(2-Amino-ethoxy)-ethoxy]-acetyl)2-(γ-Glu)-CO-(CH2)16-CO2H); Aib20; D-Glu24; C-terminal NH2
# B5: Example 249 (peptide)
# peptide: B2 peptide with X10Y
# modifications: Aib2; αMeF(2F)6; Nle13; Orn16; K17((2-[2-(2-Amino-ethoxy)-ethoxy]-acetyl)2-(γ-Glu)-CO-(CH2)16-CO2H); Aib20; D-Glu24; C-terminal NH2
# B6: Example 235 (peptide)
# peptide: B2 peptide
# modifications: Aib2; αMeF6; 4Pal10; αMeL13; Dab16; K17((2-[2-(2-Amino-ethoxy)-ethoxy]-acetyl)2-(γ-Glu)-CO-(CH2)16-CO2H); Aib20; D-Glu24; C-terminal NH2
# B7: Example 233 (peptide)
# peptide: B2 peptide
# modifications: Aib2; αMeF(2F)6; 4Pal10; αMeL13; Dab16; K17((2-[2-(2-Amino-ethoxy)-ethoxy]-acetyl)2-(γ-Glu)-CO-(CH2)16-CO2H); Aib20; D-Glu24; C-terminal NH2
# B8: Example 237 (peptide)
# peptide: B2 peptide with X10A, Y25X
# modifications: Aib2; αMeF(2F)6; αMeL13; Orn16; K17((2-[2-(2-Amino-ethoxy)-ethoxy]-acetyl)2-(γ-Glu)-CO-(CH2)16-CO2H); Aib20; D-Glu24; αMeY25; C-terminal NH2
# B9: Example 246 (peptide)
# peptide: B2 peptide with X10A, E21A, Y25X
# modifications: Aib2; αMeF(2F)6; αMeL13; Orn16; K17((2-[2-(2-Amino-ethoxy)-ethoxy]-acetyl)2-(γ-Glu)-CO-(CH2)16-CO2H); Aib20; D-Glu24; αMeY25; C-terminal NH2
# B10: Example 268 (peptide)
# peptide: Y[Aib]EGTFTSDYSILLDEK([AEEA-AEEA-γGlu-C18 diacid])AQ[Aib]AFIEYLIEGGPSSG-NH2
# modifications: N-terminus assumed
# SMILES: CC[C@H](C)[C@H](NC(=O)[C@H](CC(C)C)NC(=O)[C@H](Cc1ccc(O)cc1)NC(=O)[C@H](CCC(=O)O)NC(=O)[C@@H](NC(=O)[C@H](Cc1ccccc1)NC(=O)[C@H](C)NC(=O)C(C)(C)NC(=O)[C@H](CCC(N)=O)NC(=O)[C@H](C)NC(=O)[C@H](CCCCNC(=O)COCCOCCNC(=O)COCCOCCNC(=O)CC[C@H](NC(=O)CCCCCCCCCCCCCCCCC(=O)O)C(=O)O)NC(=O)[C@H](CCC(=O)O)NC(=O)[C@H](CC(=O)O)NC(=O)[C@H](CC(C)C)NC(=O)[C@H](CC(C)C)NC(=O)[C@@H](NC(=O)[C@H](CO)NC(=O)[C@H](Cc1ccc(O)cc1)NC(=O)[C@H](CC(=O)O)NC(=O)[C@H](CO)NC(=O)[C@@H](NC(=O)[C@H](Cc1ccccc1)NC(=O)[C@@H](NC(=O)CNC(=O)[C@H](CCC(=O)O)NC(=O)C(C)(C)NC(=O)[C@@H](N)Cc1ccc(O)cc1)[C@@H](C)O)[C@@H](C)O)[C@@H](C)CC)[C@@H](C)CC)C(=O)N[C@@H](CCC(=O)O)C(=O)NCC(=O)NCC(=O)N1CCC[C@H]1C(=O)N[C@@H](CO)C(=O)N[C@@H](CO)C(=O)NCC(N)=O
# B11: Example 270 (peptide)
# peptide: Y[Aib]EGTFTSDYSILLDKK([AEEA-AEEA-γGlu-C18 diacid])AQ[Aib]EFIEYLIEGGPSSG-NH2
# modifications: N-terminus assumed
# SMILES: CC[C@H](C)[C@H](NC(=O)[C@H](CC(C)C)NC(=O)[C@H](Cc1ccc(O)cc1)NC(=O)[C@H](CCC(=O)O)NC(=O)[C@@H](NC(=O)[C@H](Cc1ccccc1)NC(=O)[C@H](CCC(=O)O)NC(=O)C(C)(C)NC(=O)[C@H](CCC(N)=O)NC(=O)[C@H](C)NC(=O)[C@H](CCCCNC(=O)COCCOCCNC(=O)COCCOCCNC(=O)CC[C@H](NC(=O)CCCCCCCCCCCCCCCCC(=O)O)C(=O)O)NC(=O)[C@H](CCCCN)NC(=O)[C@H](CC(=O)O)NC(=O)[C@H](CC(C)C)NC(=O)[C@H](CC(C)C)NC(=O)[C@@H](NC(=O)[C@H](CO)NC(=O)[C@H](Cc1ccc(O)cc1)NC(=O)[C@H](CC(=O)O)NC(=O)[C@H](CO)NC(=O)[C@@H](NC(=O)[C@H](Cc1ccccc1)NC(=O)[C@@H](NC(=O)CNC(=O)[C@H](CCC(=O)O)NC(=O)C(C)(C)NC(=O)[C@@H](N)Cc1ccc(O)cc1)[C@@H](C)O)[C@@H](C)O)[C@@H](C)CC)[C@@H](C)CC)C(=O)N[C@@H](CCC(=O)O)C(=O)NCC(=O)NCC(=O)N1CCC[C@H]1C(=O)N[C@@H](CO)C(=O)N[C@@H](CO)C(=O)NCC(N)=O
# B12: Example 298 (peptide)
# peptide: Y[Aib]EGTFTSDYSILLDKK([AEEA-AEEA-γGlu-C18 diacid])AQ[Aib]AFVEYLIEGGPSSG-NH2
# modifications: N-terminus assumed
# SMILES: CC[C@H](C)[C@H](NC(=O)[C@H](CC(C)C)NC(=O)[C@H](Cc1ccc(O)cc1)NC(=O)[C@H](CCC(=O)O)NC(=O)[C@@H](NC(=O)[C@H](Cc1ccccc1)NC(=O)[C@H](C)NC(=O)C(C)(C)NC(=O)[C@H](CCC(N)=O)NC(=O)[C@H](C)NC(=O)[C@H](CCCCNC(=O)COCCOCCNC(=O)COCCOCCNC(=O)CC[C@H](NC(=O)CCCCCCCCCCCCCCCCC(=O)O)C(=O)O)NC(=O)[C@H](CCCCN)NC(=O)[C@H](CC(=O)O)NC(=O)[C@H](CC(C)C)NC(=O)[C@H](CC(C)C)NC(=O)[C@@H](NC(=O)[C@H](CO)NC(=O)[C@H](Cc1ccc(O)cc1)NC(=O)[C@H](CC(=O)O)NC(=O)[C@H](CO)NC(=O)[C@@H](NC(=O)[C@H](Cc1ccccc1)NC(=O)[C@@H](NC(=O)CNC(=O)[C@H](CCC(=O)O)NC(=O)C(C)(C)NC(=O)[C@@H](N)Cc1ccc(O)cc1)[C@@H](C)O)[C@@H](C)O)[C@@H](C)CC)C(C)C)C(=O)N[C@@H](CCC(=O)O)C(=O)NCC(=O)NCC(=O)N1CCC[C@H]1C(=O)N[C@@H](CO)C(=O)N[C@@H](CO)C(=O)NCC(N)=O
# B13: Example 253 (peptide)
# peptide: YXEGTFTSDYSILLDKKAQAAFIEYLIEGGPSSGAPPPS
# modifications: Aib2; K17((2-[2-(2-Amino-ethoxy)-ethoxy]-acetyl)2-(γ-Glu)-CO-(CH2)18-CO2H); C-terminal NH2
# B14: Example 229 (peptide)
# peptide: YXEGTXTSDYSXLDEKAQXEFIXYLIEGGPSSGAPPPS
# modifications: Aib2; αMeF(2F)6; αMeL12; K16((2-[2-(2-Amino-ethoxy)-ethoxy]-acetyl)2-(γ-Glu)-CO-(CH2)18-CO2H); Aib19; D-Glu23; C-terminal NH2 (positions counted on this 38-residue peptide)
# B15: Example 247 (peptide)
# peptide: B2 peptide with X10Y
# modifications: Aib2; αMeF(2F)6; Aib13; Orn16; K17((2-[2-(2-Amino-ethoxy)-ethoxy]-acetyl)2-(γ-Glu)-CO-(CH2)16-CO2H); Aib20; D-Glu24; C-terminal NH2
# Biological target: T1, human GIP receptor
# Assay: [125I]-GIP competition SPA, hGIPR membranes
# Description: The binding buffer contains 25 mM HEPES, pH 7.4, 2.5 mM CaCl₂, 1 mM MgCl₂, 0.1% (w/v) bacitracin, 0.003% (w/v) TWEEN®-20, and Roche Complete™ Protease Inhibitors without EDTA. […] Plates are sealed and mixed on a plate shaker (setting 6) for 1 minute and read with a PerkinElmer Trilux MicroBeta® scintillation counter after 2.5 to 12 hours of incubation/settling time at room temperature.
# (§1) Data are analyzed using four-parameter (curve maximum, curve minimum, IC₅₀, Hill slope) nonlinear regression routines (Genedata Screener, version 12.0.4, Genedata AG, Basal, Switzerland). […] Values for Kᵢ are reported as the geometric mean, with error expressed as the standard error of the mean (SEM) and n is equal to the number of independent replicates (determined in assays performed on different days). Geometric Means are calculated as follows: […]
row,Binder,Ki
1,B1,0.114 nM
2,B2,0.0544 nM
3,B3,0.0563 nM
4,B4,0.0397 nM
5,B5,0.0394 nM
6,B6,0.0581 nM
7,B7,0.0445 nM
8,B8,0.131 nM
9,B9,0.0509 nM
10,B10,0.0814 nM
11,B11,0.117 nM
12,B12,0.0578 nM
13,B13,0.138 nM
14,B14,2.47 nM

# Biological target: T2, human GLP-1 receptor (human, UniProt P43220 24-463)
# T2 construct: whole, on cells; also called hGLP-1R; hGLP1R
# Assay: [125I]-GLP-1 competition SPA, hGLP-1R membranes
# Description: The binding buffer contains 25 mM HEPES, pH 7.4, 2.5 mM CaCl₂, 1 mM MgCl₂, 0.1% (w/v) bacitracin, 0.003% (w/v) TWEEN®-20, and Roche Complete™ Protease Inhibitors without EDTA.
# as §1
row,Binder,Ki
1,B2,5.62 nM
2,B3,10.9 nM
3,B4,2.4 nM
4,B5,2.35 nM
5,B6,7.65 nM
6,B7,5.99 nM
7,B15,4.39 nM
8,B8,1.04 nM
9,B9,0.812 nM
10,B10,3.98 nM
11,B11,8.27 nM
12,B12,3.03 nM
13,B13,2.57 nM
14,B14,36.2 nM
